Series [1] is described as follows: confocal colocalisation with calreticulin/GM130; membrane trafficking. Conditions: glycan lost; control: SEMA7A-WT.
The nature of series [2]: CHX chase immunoblot, turnover rate. Conditions: glycan lost; control: untreated (endogenous SEMA7A). (In general: A western blot detects proteins with antibodies after separation by electrophoresis.)
A short description of series [3]: immunofluorescence intensity, HN6 and HN30. The conditions noted are these: glycan lost; control: untreated and O-Glycosidase-treated cells.
Series [4] in a line: non-reducing vs reducing western blot. The conditions noted are these: glycan lost; control: SEMA7A-WT.

From article PMC10978839 come the findings set out here.

B1: SEMA7A: N258Q (protein)
parent chain: MTPPPPGRAAPSAPRARVPGPPARLGLPLRLRLLLLLWAAAASAQGHLRSGPRIFAVWKGHVGQDRVDFGQTEPHTVLFHEPGSSSVWVGGRGKVYLFDFPEGKNASVRTVNIGSTKGSCLDKRDCENYITLLERRSEGLLACGTNARHPSCWNLVNGTVVPLGEMRGYAPFSPDENSLVLFEGDEVYSTIRKQEYNGKIPRFRRIRGESELYTSDTVMQNPQFIKATIVHQDQAYDDKIYYFFREDNPDKNPEAPLNVSRVAQLCRGDQGGESSLSVSKWNTFLKAMLVCSDAATNKNFNRLQDVFLLPDPSGQWRDTRVYGVFSNPWNYSAVCVYSLGDIDKVFRTSSLKGYHSSLPNPRPGKCLPDQQPIPTETFQVADRHPEVAQRVEPMGPLKTPLFHSKYHYQKVAVHRMQASHGETFHVLYLTTDRGTIHKVVEPGEQEHSFAFNIMEIQPFRRAAAIQTMSLDAERRKLYVSSQWEVSQVPLDLCEVYGGGCHGCLMSRDPYCGWDQGRCISIYSSERSVLQSINPAEPHKECPNPKPDKAPLQKVSLAPNSRYYLSCPMESRHATYSWRHKENVEQSCEPGHQSPNCILFIENLTAQQYGHYFCEAQEGSYFREAQHWQLLPEDGIMAEHLLGHACALAASLWLGVLPTLTLGLLVH
For B1, the localisation_or_trafficking result in series [1] is on record as “no change”.

B2: SEMA7A: N602Q (protein)
parent chain: MTPPPPGRAAPSAPRARVPGPPARLGLPLRLRLLLLLWAAAASAQGHLRSGPRIFAVWKGHVGQDRVDFGQTEPHTVLFHEPGSSSVWVGGRGKVYLFDFPEGKNASVRTVNIGSTKGSCLDKRDCENYITLLERRSEGLLACGTNARHPSCWNLVNGTVVPLGEMRGYAPFSPDENSLVLFEGDEVYSTIRKQEYNGKIPRFRRIRGESELYTSDTVMQNPQFIKATIVHQDQAYDDKIYYFFREDNPDKNPEAPLNVSRVAQLCRGDQGGESSLSVSKWNTFLKAMLVCSDAATNKNFNRLQDVFLLPDPSGQWRDTRVYGVFSNPWNYSAVCVYSLGDIDKVFRTSSLKGYHSSLPNPRPGKCLPDQQPIPTETFQVADRHPEVAQRVEPMGPLKTPLFHSKYHYQKVAVHRMQASHGETFHVLYLTTDRGTIHKVVEPGEQEHSFAFNIMEIQPFRRAAAIQTMSLDAERRKLYVSSQWEVSQVPLDLCEVYGGGCHGCLMSRDPYCGWDQGRCISIYSSERSVLQSINPAEPHKECPNPKPDKAPLQKVSLAPNSRYYLSCPMESRHATYSWRHKENVEQSCEPGHQSPNCILFIENLTAQQYGHYFCEAQEGSYFREAQHWQLLPEDGIMAEHLLGHACALAASLWLGVLPTLTLGLLVH
As for B2, in series [1], the localisation_or_trafficking result is listed as “no change”.

B3: SEMA7A: N157Q (protein)
parent chain: MTPPPPGRAAPSAPRARVPGPPARLGLPLRLRLLLLLWAAAASAQGHLRSGPRIFAVWKGHVGQDRVDFGQTEPHTVLFHEPGSSSVWVGGRGKVYLFDFPEGKNASVRTVNIGSTKGSCLDKRDCENYITLLERRSEGLLACGTNARHPSCWNLVNGTVVPLGEMRGYAPFSPDENSLVLFEGDEVYSTIRKQEYNGKIPRFRRIRGESELYTSDTVMQNPQFIKATIVHQDQAYDDKIYYFFREDNPDKNPEAPLNVSRVAQLCRGDQGGESSLSVSKWNTFLKAMLVCSDAATNKNFNRLQDVFLLPDPSGQWRDTRVYGVFSNPWNYSAVCVYSLGDIDKVFRTSSLKGYHSSLPNPRPGKCLPDQQPIPTETFQVADRHPEVAQRVEPMGPLKTPLFHSKYHYQKVAVHRMQASHGETFHVLYLTTDRGTIHKVVEPGEQEHSFAFNIMEIQPFRRAAAIQTMSLDAERRKLYVSSQWEVSQVPLDLCEVYGGGCHGCLMSRDPYCGWDQGRCISIYSSERSVLQSINPAEPHKECPNPKPDKAPLQKVSLAPNSRYYLSCPMESRHATYSWRHKENVEQSCEPGHQSPNCILFIENLTAQQYGHYFCEAQEGSYFREAQHWQLLPEDGIMAEHLLGHACALAASLWLGVLPTLTLGLLVH
As for B3, the localisation_or_trafficking result in series [1] is “no change”.

B4: SEMA7A: tunicamycin (protein)
parent chain: MTPPPPGRAAPSAPRARVPGPPARLGLPLRLRLLLLLWAAAASAQGHLRSGPRIFAVWKGHVGQDRVDFGQTEPHTVLFHEPGSSSVWVGGRGKVYLFDFPEGKNASVRTVNIGSTKGSCLDKRDCENYITLLERRSEGLLACGTNARHPSCWNLVNGTVVPLGEMRGYAPFSPDENSLVLFEGDEVYSTIRKQEYNGKIPRFRRIRGESELYTSDTVMQNPQFIKATIVHQDQAYDDKIYYFFREDNPDKNPEAPLNVSRVAQLCRGDQGGESSLSVSKWNTFLKAMLVCSDAATNKNFNRLQDVFLLPDPSGQWRDTRVYGVFSNPWNYSAVCVYSLGDIDKVFRTSSLKGYHSSLPNPRPGKCLPDQQPIPTETFQVADRHPEVAQRVEPMGPLKTPLFHSKYHYQKVAVHRMQASHGETFHVLYLTTDRGTIHKVVEPGEQEHSFAFNIMEIQPFRRAAAIQTMSLDAERRKLYVSSQWEVSQVPLDLCEVYGGGCHGCLMSRDPYCGWDQGRCISIYSSERSVLQSINPAEPHKECPNPKPDKAPLQKVSLAPNSRYYLSCPMESRHATYSWRHKENVEQSCEPGHQSPNCILFIENLTAQQYGHYFCEAQEGSYFREAQHWQLLPEDGIMAEHLLGHACALAASLWLGVLPTLTLGLLVH
Take B4: the degradation_or_half_life entry in series [2] is given as “increases”.

B5: SEMA7A: PNGase F (protein)
parent chain: MTPPPPGRAAPSAPRARVPGPPARLGLPLRLRLLLLLWAAAASAQGHLRSGPRIFAVWKGHVGQDRVDFGQTEPHTVLFHEPGSSSVWVGGRGKVYLFDFPEGKNASVRTVNIGSTKGSCLDKRDCENYITLLERRSEGLLACGTNARHPSCWNLVNGTVVPLGEMRGYAPFSPDENSLVLFEGDEVYSTIRKQEYNGKIPRFRRIRGESELYTSDTVMQNPQFIKATIVHQDQAYDDKIYYFFREDNPDKNPEAPLNVSRVAQLCRGDQGGESSLSVSKWNTFLKAMLVCSDAATNKNFNRLQDVFLLPDPSGQWRDTRVYGVFSNPWNYSAVCVYSLGDIDKVFRTSSLKGYHSSLPNPRPGKCLPDQQPIPTETFQVADRHPEVAQRVEPMGPLKTPLFHSKYHYQKVAVHRMQASHGETFHVLYLTTDRGTIHKVVEPGEQEHSFAFNIMEIQPFRRAAAIQTMSLDAERRKLYVSSQWEVSQVPLDLCEVYGGGCHGCLMSRDPYCGWDQGRCISIYSSERSVLQSINPAEPHKECPNPKPDKAPLQKVSLAPNSRYYLSCPMESRHATYSWRHKENVEQSCEPGHQSPNCILFIENLTAQQYGHYFCEAQEGSYFREAQHWQLLPEDGIMAEHLLGHACALAASLWLGVLPTLTLGLLVH
Consider B5, for which the “other: immunofluorescence detection by antibody” value in series [3] is reported as “increases”.

B6: SEMA7A: 3NQ (protein)
parent chain: MTPPPPGRAAPSAPRARVPGPPARLGLPLRLRLLLLLWAAAASAQGHLRSGPRIFAVWKGHVGQDRVDFGQTEPHTVLFHEPGSSSVWVGGRGKVYLFDFPEGKNASVRTVNIGSTKGSCLDKRDCENYITLLERRSEGLLACGTNARHPSCWNLVNGTVVPLGEMRGYAPFSPDENSLVLFEGDEVYSTIRKQEYNGKIPRFRRIRGESELYTSDTVMQNPQFIKATIVHQDQAYDDKIYYFFREDNPDKNPEAPLNVSRVAQLCRGDQGGESSLSVSKWNTFLKAMLVCSDAATNKNFNRLQDVFLLPDPSGQWRDTRVYGVFSNPWNYSAVCVYSLGDIDKVFRTSSLKGYHSSLPNPRPGKCLPDQQPIPTETFQVADRHPEVAQRVEPMGPLKTPLFHSKYHYQKVAVHRMQASHGETFHVLYLTTDRGTIHKVVEPGEQEHSFAFNIMEIQPFRRAAAIQTMSLDAERRKLYVSSQWEVSQVPLDLCEVYGGGCHGCLMSRDPYCGWDQGRCISIYSSERSVLQSINPAEPHKECPNPKPDKAPLQKVSLAPNSRYYLSCPMESRHATYSWRHKENVEQSCEPGHQSPNCILFIENLTAQQYGHYFCEAQEGSYFREAQHWQLLPEDGIMAEHLLGHACALAASLWLGVLPTLTLGLLVH
For B6, the oligomerisation entry in series [4] is given as “no change”.

B7: SEMA7A: N330Q (protein)
parent chain: MTPPPPGRAAPSAPRARVPGPPARLGLPLRLRLLLLLWAAAASAQGHLRSGPRIFAVWKGHVGQDRVDFGQTEPHTVLFHEPGSSSVWVGGRGKVYLFDFPEGKNASVRTVNIGSTKGSCLDKRDCENYITLLERRSEGLLACGTNARHPSCWNLVNGTVVPLGEMRGYAPFSPDENSLVLFEGDEVYSTIRKQEYNGKIPRFRRIRGESELYTSDTVMQNPQFIKATIVHQDQAYDDKIYYFFREDNPDKNPEAPLNVSRVAQLCRGDQGGESSLSVSKWNTFLKAMLVCSDAATNKNFNRLQDVFLLPDPSGQWRDTRVYGVFSNPWNYSAVCVYSLGDIDKVFRTSSLKGYHSSLPNPRPGKCLPDQQPIPTETFQVADRHPEVAQRVEPMGPLKTPLFHSKYHYQKVAVHRMQASHGETFHVLYLTTDRGTIHKVVEPGEQEHSFAFNIMEIQPFRRAAAIQTMSLDAERRKLYVSSQWEVSQVPLDLCEVYGGGCHGCLMSRDPYCGWDQGRCISIYSSERSVLQSINPAEPHKECPNPKPDKAPLQKVSLAPNSRYYLSCPMESRHATYSWRHKENVEQSCEPGHQSPNCILFIENLTAQQYGHYFCEAQEGSYFREAQHWQLLPEDGIMAEHLLGHACALAASLWLGVLPTLTLGLLVH
Consider B7, for which the localisation_or_trafficking result in series [1] is recorded as “no change”.

B8: SEMA7A: N105Q (protein)
parent chain: MTPPPPGRAAPSAPRARVPGPPARLGLPLRLRLLLLLWAAAASAQGHLRSGPRIFAVWKGHVGQDRVDFGQTEPHTVLFHEPGSSSVWVGGRGKVYLFDFPEGKNASVRTVNIGSTKGSCLDKRDCENYITLLERRSEGLLACGTNARHPSCWNLVNGTVVPLGEMRGYAPFSPDENSLVLFEGDEVYSTIRKQEYNGKIPRFRRIRGESELYTSDTVMQNPQFIKATIVHQDQAYDDKIYYFFREDNPDKNPEAPLNVSRVAQLCRGDQGGESSLSVSKWNTFLKAMLVCSDAATNKNFNRLQDVFLLPDPSGQWRDTRVYGVFSNPWNYSAVCVYSLGDIDKVFRTSSLKGYHSSLPNPRPGKCLPDQQPIPTETFQVADRHPEVAQRVEPMGPLKTPLFHSKYHYQKVAVHRMQASHGETFHVLYLTTDRGTIHKVVEPGEQEHSFAFNIMEIQPFRRAAAIQTMSLDAERRKLYVSSQWEVSQVPLDLCEVYGGGCHGCLMSRDPYCGWDQGRCISIYSSERSVLQSINPAEPHKECPNPKPDKAPLQKVSLAPNSRYYLSCPMESRHATYSWRHKENVEQSCEPGHQSPNCILFIENLTAQQYGHYFCEAQEGSYFREAQHWQLLPEDGIMAEHLLGHACALAASLWLGVLPTLTLGLLVH
Turning to B8, in series [1], the localisation_or_trafficking result was “no change”.
